Results taken from patent EP4663654A1 (Hangzhou Sciwind Biosciences Co., Ltd., dated 2025).
Starred links: 1 amine or outer side, 2 acyl side, 3 side chain; linkers in the order of their positions; H or OH if unused. Non-standard residues stand in square brackets, D forms with d. *: point of attachment. C20 diacid = O=C(O)CCCCCCCCCCCCCCCCCCC(=O)*; γGlu = O=C(O)[C@H](CCC(=O)[*:2])N[*:1]; Hyp = O=C(O)[C@@H]1C[C@@H](O)CN1

T1: human amylin receptor (AMY3) on CHO-K1/Ga15/AMY3 amylin receptor/CRE-luc cells (human, UniProt P30988 25-474; O60896 24-148)
T1 sequence (looked up) 1: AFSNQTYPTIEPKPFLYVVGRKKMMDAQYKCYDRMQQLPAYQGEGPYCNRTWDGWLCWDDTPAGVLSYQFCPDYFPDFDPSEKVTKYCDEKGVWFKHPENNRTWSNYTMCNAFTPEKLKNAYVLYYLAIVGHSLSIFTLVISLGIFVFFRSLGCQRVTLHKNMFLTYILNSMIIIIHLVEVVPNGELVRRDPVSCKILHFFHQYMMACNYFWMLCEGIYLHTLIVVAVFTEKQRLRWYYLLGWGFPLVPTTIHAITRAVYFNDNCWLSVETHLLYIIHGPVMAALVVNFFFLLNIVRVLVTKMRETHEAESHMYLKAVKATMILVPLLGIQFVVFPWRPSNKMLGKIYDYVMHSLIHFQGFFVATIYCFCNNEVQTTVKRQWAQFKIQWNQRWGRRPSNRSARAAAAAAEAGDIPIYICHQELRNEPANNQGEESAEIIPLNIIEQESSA
T1 sequence (looked up) 2: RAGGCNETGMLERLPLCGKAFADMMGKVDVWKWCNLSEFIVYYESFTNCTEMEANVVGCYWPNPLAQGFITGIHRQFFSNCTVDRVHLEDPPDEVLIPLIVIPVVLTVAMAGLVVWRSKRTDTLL

B1: polypeptide derivative M52 (peptide)
peptide: {C20 diacid-γGlu}-ASQLSTAATQRLADFLRHSSHNLKPILPPTNVGSNT[Hyp]-NH2
SMILES: CC[C@H](C)[C@H](NC(=O)[C@@H]1CCCN1C(=O)[C@H](CCCCN)NC(=O)[C@H](CC(C)C)NC(=O)[C@H](CC(N)=O)NC(=O)[C@H](Cc1c[nH]cn1)NC(=O)[C@H](CO)NC(=O)[C@H](CO)NC(=O)[C@H](Cc1c[nH]cn1)NC(=O)[C@H](CCCNC(=N)N)NC(=O)[C@H](CC(C)C)NC(=O)[C@H](Cc1ccccc1)NC(=O)[C@H](CC(=O)O)NC(=O)[C@H](C)NC(=O)[C@H](CC(C)C)NC(=O)[C@H](CCCNC(=N)N)NC(=O)[C@H](CCC(N)=O)NC(=O)[C@@H](NC(=O)[C@H](C)NC(=O)[C@H](C)NC(=O)[C@@H](NC(=O)[C@H](CO)NC(=O)[C@H](CC(C)C)NC(=O)[C@H](CCC(N)=O)NC(=O)[C@H](CO)NC(=O)[C@H](C)NC(=O)CC[C@H](NC(=O)CCCCCCCCCCCCCCCCCCC(=O)O)C(=O)O)[C@@H](C)O)[C@@H](C)O)C(=O)N[C@@H](CC(C)C)C(=O)N1CCC[C@H]1C(=O)N1CCC[C@H]1C(=O)N[C@H](C(=O)N[C@@H](CC(N)=O)C(=O)N[C@H](C(=O)NCC(=O)N[C@@H](CO)C(=O)N[C@@H](CC(N)=O)C(=O)N[C@H](C(=O)N1C[C@H](O)C[C@H]1C(N)=O)[C@@H](C)O)C(C)C)[C@@H](C)O
B2: polypeptide derivative M51 (peptide)
peptide: {C20 diacid-γGlu}-ASQLSTAATQRLADFLRHSSGNLKPILPPTNVGSNT[Hyp]-NH2
SMILES: CC[C@H](C)[C@H](NC(=O)[C@@H]1CCCN1C(=O)[C@H](CCCCN)NC(=O)[C@H](CC(C)C)NC(=O)[C@H](CC(N)=O)NC(=O)CNC(=O)[C@H](CO)NC(=O)[C@H](CO)NC(=O)[C@H](Cc1c[nH]cn1)NC(=O)[C@H](CCCNC(=N)N)NC(=O)[C@H](CC(C)C)NC(=O)[C@H](Cc1ccccc1)NC(=O)[C@H](CC(=O)O)NC(=O)[C@H](C)NC(=O)[C@H](CC(C)C)NC(=O)[C@H](CCCNC(=N)N)NC(=O)[C@H](CCC(N)=O)NC(=O)[C@@H](NC(=O)[C@H](C)NC(=O)[C@H](C)NC(=O)[C@@H](NC(=O)[C@H](CO)NC(=O)[C@H](CC(C)C)NC(=O)[C@H](CCC(N)=O)NC(=O)[C@H](CO)NC(=O)[C@H](C)NC(=O)CC[C@H](NC(=O)CCCCCCCCCCCCCCCCCCC(=O)O)C(=O)O)[C@@H](C)O)[C@@H](C)O)C(=O)N[C@@H](CC(C)C)C(=O)N1CCC[C@H]1C(=O)N1CCC[C@H]1C(=O)N[C@H](C(=O)N[C@@H](CC(N)=O)C(=O)N[C@H](C(=O)NCC(=O)N[C@@H](CO)C(=O)N[C@@H](CC(N)=O)C(=O)N[C@H](C(=O)N1C[C@H](O)C[C@H]1C(N)=O)[C@@H](C)O)C(C)C)[C@@H](C)O
B3: polypeptide derivative M49 (peptide)
peptide: {C20 diacid-γGlu}-ASQLSTAATQRLADFLRHSSTNLKPILPPTNVGSNT[Hyp]-NH2
SMILES: CC[C@H](C)[C@H](NC(=O)[C@@H]1CCCN1C(=O)[C@H](CCCCN)NC(=O)[C@H](CC(C)C)NC(=O)[C@H](CC(N)=O)NC(=O)[C@@H](NC(=O)[C@H](CO)NC(=O)[C@H](CO)NC(=O)[C@H](Cc1c[nH]cn1)NC(=O)[C@H](CCCNC(=N)N)NC(=O)[C@H](CC(C)C)NC(=O)[C@H](Cc1ccccc1)NC(=O)[C@H](CC(=O)O)NC(=O)[C@H](C)NC(=O)[C@H](CC(C)C)NC(=O)[C@H](CCCNC(=N)N)NC(=O)[C@H](CCC(N)=O)NC(=O)[C@@H](NC(=O)[C@H](C)NC(=O)[C@H](C)NC(=O)[C@@H](NC(=O)[C@H](CO)NC(=O)[C@H](CC(C)C)NC(=O)[C@H](CCC(N)=O)NC(=O)[C@H](CO)NC(=O)[C@H](C)NC(=O)CC[C@H](NC(=O)CCCCCCCCCCCCCCCCCCC(=O)O)C(=O)O)[C@@H](C)O)[C@@H](C)O)[C@@H](C)O)C(=O)N[C@@H](CC(C)C)C(=O)N1CCC[C@H]1C(=O)N1CCC[C@H]1C(=O)N[C@H](C(=O)N[C@@H](CC(N)=O)C(=O)N[C@H](C(=O)NCC(=O)N[C@@H](CO)C(=O)N[C@@H](CC(N)=O)C(=O)N[C@H](C(=O)N1C[C@H](O)C[C@H]1C(N)=O)[C@@H](C)O)C(C)C)[C@@H](C)O
B4: polypeptide derivative M50 (peptide)
peptide: {C20 diacid-γGlu}-ASQLSTAATQRLADFLRHSSANLKPILPPTNVGSNT[Hyp]-NH2
SMILES: CC[C@H](C)[C@H](NC(=O)[C@@H]1CCCN1C(=O)[C@H](CCCCN)NC(=O)[C@H](CC(C)C)NC(=O)[C@H](CC(N)=O)NC(=O)[C@H](C)NC(=O)[C@H](CO)NC(=O)[C@H](CO)NC(=O)[C@H](Cc1c[nH]cn1)NC(=O)[C@H](CCCNC(=N)N)NC(=O)[C@H](CC(C)C)NC(=O)[C@H](Cc1ccccc1)NC(=O)[C@H](CC(=O)O)NC(=O)[C@H](C)NC(=O)[C@H](CC(C)C)NC(=O)[C@H](CCCNC(=N)N)NC(=O)[C@H](CCC(N)=O)NC(=O)[C@@H](NC(=O)[C@H](C)NC(=O)[C@H](C)NC(=O)[C@@H](NC(=O)[C@H](CO)NC(=O)[C@H](CC(C)C)NC(=O)[C@H](CCC(N)=O)NC(=O)[C@H](CO)NC(=O)[C@H](C)NC(=O)CC[C@H](NC(=O)CCCCCCCCCCCCCCCCCCC(=O)O)C(=O)O)[C@@H](C)O)[C@@H](C)O)C(=O)N[C@@H](CC(C)C)C(=O)N1CCC[C@H]1C(=O)N1CCC[C@H]1C(=O)N[C@H](C(=O)N[C@@H](CC(N)=O)C(=O)N[C@H](C(=O)NCC(=O)N[C@@H](CO)C(=O)N[C@@H](CC(N)=O)C(=O)N[C@H](C(=O)N1C[C@H](O)C[C@H]1C(N)=O)[C@@H](C)O)C(C)C)[C@@H](C)O

Molecular target: T1, human amylin receptor (AMY3) on …
Test: cell-based or functional assay

| Binder | EC50/nM, CRE-luciferase reporter in amylin receptor/CRE-luc CHO cells [nM] | Relative activity (the EC50 ratio of Cagrilintide to the compound) [%] |
| --- | --- | --- |
| B1 | 0.09 | 178 |
| B2 | 0.08 | 163 |
| B3 | 0.08 | 163 |
| B4 | 0.07 | 186 |
